# Experiment: soluble on expression in E. coli; label from the status in PepcDB or PDB records
row,Sequence,soluble on expression in E. coli
1,MFVMIIQGQVLGGYPRSRYVRRALRRLEQGEISAVELMGVLNQASSAVIGAQVSQGFPYVVDGMLDWHDIFRPFAEAWRNVTPTGLLRYFDNNFFYRIPLFTGEPEPTDPVLAPRVLSYSQVAEPAKLKVVVPGPVTFTLMSRNESGISDEELAEAIANLLADEVEKAVKAGAGFVQVDEPILSEPKATRDHALLAAELAGVIASRSGSAETMLSVYFYPPKPEVYEALLEARVDYLMVDLVAAGSKGLEVITGKGAGEGLALGVIDARSIYSESLEKVEAPVRRIVESVKPEKIILTTSTWLDLIPYRYALRKTALLGRYTYALAEKLGAQIAVAGGEMAGDPLEHHHHHH,not soluble
2,LLQTMLSMTSHGPAQVFTERYQLIVQPLGLSQQVEKDSLDLLADYLHGFALSISCCHDASLIKTDMLDGPLKLICSSLLASRT,not soluble
3,MGRSPCFFKSFKGKLHKDRSPDPSTLASPHPSTEARRPVEAGSAEWTWGWMKRLPPASLSPGIAMSCYSGDSMLQKYKVKNAYRLHWQGREEPGASTFASLVFQ,soluble
4,GSMAPLGGAPRLVLLFSGKRKSGKDFVTEALQSRLGADVCAVLRLSGPLKEQYAQEHGLNFQRLLDTSTYKEAFRKDMIRWGEEKRQADPGFFCRKIVEGISQPIWLVSDTRRVSDIQWFREAYGAVTQTVRVVALEQSRQQRGWVFTPGVDDAESECGLDNFGDFDWVIENHGVEQRLEEQLENLIEFIRSRLKLHHHHHH,soluble
5,QKVPAPVDGERIIMELSEADVECTIKIEAEDGYANDIWADLNGNGKYDSGERLDSGEFRDVEFRQTKAIVYGKMAKFLFRGSSAGD,not soluble
6,MGSDKIHHHHHHMKKVLTAALLMTAPFMANAGADFVKGDKTFAGEAELGATLTTGNTDTSSYKGRLNFKHELGDWENQYLLEGLYKEDTGAVTAKRYLAGAQGNYKMNDRSYWFANANYEVDPFTGYDYTLSGATGYGHRLLDTSKTFLDVEIGPGYIYQRLDSEQALLEGTDSNDSVVAHGVINFETEITETSKFQQRFVADYGEKLDARSETSLTANIIGALAMKFAIIVRYNSEPLDDKKSTDTETNMTLLYSF,not soluble
7,MPVFVKLTGGSIGLQAGVQSSDVVLVFRNDRNLDNIVNGKFTLGADASVAAGPVGRNALAATDSELKAEIYSWSTARGLFAGIALDGAALQIDDSANLDVYGKGTTPRMIFEGRTAEPPSSDVIAFRDRLEEVTYTARNNLEHHHHHH,soluble
8,MSLAIKLIAIDMDGTLLLPDHTISPAVKNAIAAARARGVNVVLTTGRPYAGVHNYLKELHMEQPGDYCITYNGALVQKAADGSTVAQTALSYDDYRFLEKLSREVGSHFHALDRTTLYTANRDISYYTVHESFVATIPLVFCEAEKMDPNTQFLKVMMIDEPAILDQAIARIPQEVKEKYTVLKSAPYFLEILDKRVNKGTGVKSLADVLGIKPEEIMAIGDQENDIAMIEYAGVGVAVDNAIPSVKEVANFVTKSNLEDGVAFAIEKYVLNEGGSHHHHHH,soluble
9,MSLSFLYFNDNSKIANAPLKNRFEKTQKESLIIKNNNEDKKAKSKPKFYLIIDDVGYDEFMLEQFIKLNLKITYAIIPFLPKSMSLYKKLKNANKTVIIHFPMQSKHRNSIEKFHINIKDKKEEIHKKIEKAFKKYPDAKIMNNHMGSLITSNKDLMKIILEKLKEIDRYFFDSVTIAGSVPEIIGKEIGVKVEKRDVFLDSKDTEESVTKELEKAKNIARKNGMVKVIGHIWSKNTLKVLKKEGPDLNQEFEFDNLLNLYEETIREGHHHHHH,not soluble
10,MAHHHHHHMPKSSPPDEHKVLIKKLTHACASYDSASRKYLTAVKALDSSLEAVAIAIRELSQGEESEDAVTRVDRFCTSVDRHMAGSSAGASFGHNKSGRLSDSAAFNGAEYPFAAYMSDFTREVSSAVDELKEILKKIEKSRSKHDDLVAKYNKKRSEVDTMEMKLAKKNQGIATNEKYSHKLSDRDALKVQVDTGERELRAEFMELLQRRTRILLQVVHGMQTHSSKYYSHLSKAMQA,soluble
11,MAHHHHHHMNVRKSILNYLILHSSIVRRNHNKSYQKECRQSGSLNWMEKNRKMKSVRPNYFVCIPLSGNKGLVEELIKVQNHVASKFEMLKECAIERNKFHISLLILHVKKSQMVASKEAFREAIEEIKKLNHQAISFDTLETFRNDVLYAGLKEDSRKYVVNMIALLRDAFTKRDIHIFSNHKGKEEAREKTRPSGAIDKGIGNRTDKGAAVPSTYQCSEKEQITPHVTIMKNSYLRKIYANRKPQIFADYYADFNLSKLQTERVVPNKIQFLEMDTDSATSYYRVIDECGLP,not soluble
